In publication doi:10.1101/2024.10.02.616253 (bioRxiv, 2024):

Molecular target: BTN3A1 ectodomain (human, UniProt O00481)
Assay: SPR

Sequence of BTN3A1 ectodomain (O00481 30-254): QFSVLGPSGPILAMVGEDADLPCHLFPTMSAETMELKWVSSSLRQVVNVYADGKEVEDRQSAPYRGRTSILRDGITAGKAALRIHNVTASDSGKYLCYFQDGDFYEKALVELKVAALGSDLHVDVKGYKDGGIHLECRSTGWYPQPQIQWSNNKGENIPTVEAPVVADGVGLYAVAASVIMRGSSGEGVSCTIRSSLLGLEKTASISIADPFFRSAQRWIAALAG

B1: TH001 monoclonal antibody (antibody, V domains shown)
VH: EVHVKQSGAELARPGTSVKLSCKASGYTFTDYYLNWVKQRTGQGLEWIGEIYPGGGNTYYNEKFKGKATLTADKSSSTAYMQLSSLTSEDSAVYFCARRTTVVGDYWGQGTTLTVSS
VL: DVLMTQTPLSLPVSLGDQASISCRSSQSIVNSKGNTYLEWYVQKPGQSPKLLIYKVSNRFSGVPDRFSGSGSGTDFTLKISRVEAEDLGVYYCFQGSHVPWTFGGGTKLEIK
binding result: binds
